According to patent EP1287147B1:

Columns and labels:
[1] = target: human CD3 (CD3 epsilon of the T-cell receptor complex) on Jurkat cells (human) (UniProt P07766); experiment: competition with 125I-UCHT1 tracer on Jurkat cells; competitor at 100 nM
[2] = target: human CD3 (CD3 epsilon of the T-cell receptor complex) on Jurkat cells (human) (UniProt P07766); experiment: competition with 125I-UCHT1 tracer on Jurkat cells; competitor at 1 nM
[3] = target: human CD3 (CD3 epsilon of the T-cell receptor complex) on Jurkat cells (human) (UniProt P07766); experiment: cell-based or functional assay

% of 125I-UCHT1 tracer bound (% of tracer bound without competitor) [1] | % of 125I-UCHT1 tracer bound (% of tracer bound without competitor) [2] | Substance | ratio of IC50 of sFv-DT390 to IC50 of UCHT1-CRM9 [3] [fold]
0 | 80 | UCHT1 monoclonal antibody (murine anti-human CD3, IgG1) | –
0 | 80 | scUCHT1 (divalent chimeric anti-human CD3 single chain antibody, UCHT1 VL-linker-VH fused to human IgM Fc CH2-CH4) (Fc fusion) | –
– | – | sFv-DT390 (DT390-sFv(UCHT1'), anti-CD3 single-chain immunotoxin with truncated diphtheria toxin) | 16
